Changes are numbered by the printed parent chain.
T1: CCR5 R274A/D276A, HA-tagged (human, UniProt P51681 1-352)
T1 sequence: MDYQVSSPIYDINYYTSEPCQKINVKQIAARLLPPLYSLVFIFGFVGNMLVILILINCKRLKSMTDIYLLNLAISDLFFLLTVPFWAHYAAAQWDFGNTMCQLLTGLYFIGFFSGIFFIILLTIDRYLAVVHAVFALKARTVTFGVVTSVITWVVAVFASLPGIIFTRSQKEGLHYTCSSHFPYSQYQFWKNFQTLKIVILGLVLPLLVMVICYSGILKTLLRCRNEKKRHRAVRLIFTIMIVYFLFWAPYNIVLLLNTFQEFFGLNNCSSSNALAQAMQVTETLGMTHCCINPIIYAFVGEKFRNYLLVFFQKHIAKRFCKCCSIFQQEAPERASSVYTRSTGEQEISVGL

T2: CCR5 D95A, HA-tagged (human, UniProt P51681 1-352)
T2 sequence: T1 sequence with D95A, A274R, A276D

T3: CCR5 R31A, HA-tagged (human, UniProt P51681 1-352)
T3 sequence: T1 sequence with R31A, A274R, A276D

T4: CCR5 D2A, HA-tagged (human, UniProt P51681 1-352)
T4 sequence (looked up): T1 sequence with D2A, A274R, A276D

T5: CCR5 Q188A, HA-tagged (human, UniProt P51681 1-352)
T5 sequence: T1 sequence with Q188A, A274R, A276D

T6: CCR5 K171A/E172A, HA-tagged (human, UniProt P51681 1-352)
T6 sequence: T1 sequence with K171A, E172A, A274R, A276D

T7: CCR5 D11A, HA-tagged (human, UniProt P51681 1-352)
T7 sequence (looked up): T1 sequence with D11A, A274R, A276D

B1: RANTES, recombinant human (ligand)
chain: SPYSSDTTPCCFAYIARPLPRAHIKEYFYTSGKCSNPAVVFVTRKNRQVCANPEKKWVREYINSLEMS
B2: macrophage inflammatory protein (MIP)-1β, recombinant human (ligand, UniProt P13236 24-92, looked up)
chain: APMGSDPPTACCFSYTARKLPRNFVVDYYETSSLCSQPAVVFQTKRSKQVCADPSESWVQEYVYDLELN

Columns and labels:
Assay in all cases: cell-based or functional assay
[1] = target: wild-type CCR5, HA-tagged at the C-terminus (human, UniProt P51681 1-352)
[2] = target: T1, CCR5 R274A/D276A, HA-tagged
[3] = target: T2, CCR5 D95A, HA-tagged
[4] = target: T3, CCR5 R31A, HA-tagged
[5] = target: T4, CCR5 D2A, HA-tagged
[6] = target: T5, CCR5 Q188A, HA-tagged
[7] = target: T6, CCR5 K171A/E172A, HA-tagged
[8] = target: T7, CCR5 D11A, HA-tagged

Binder	relative % inhibition of NLluc/JR-FL entry into U87MG-CD4 cells by 2 µg/ml chemokine (wild-type = 100) [1] [%]	relative % inhibition of NLluc/JR-FL entry into U87MG-CD4 cells by 2 µg/ml chemokine (wild-type = 100) [2] [%]	relative % inhibition of NLluc/JR-FL entry into U87MG-CD4 cells by 2 µg/ml chemokine (wild-type = 100) [3] [%]	relative % inhibition of NLluc/JR-FL entry into U87MG-CD4 cells by 2 µg/ml chemokine (wild-type = 100) [4] [%]	relative % inhibition of NLluc/JR-FL entry into U87MG-CD4 cells by 2 µg/ml chemokine (wild-type = 100) [5] [%]	relative % inhibition of NLluc/JR-FL entry into U87MG-CD4 cells by 2 µg/ml chemokine (wild-type = 100) [6] [%]	relative % inhibition of NLluc/JR-FL entry into U87MG-CD4 cells by 2 µg/ml chemokine (wild-type = 100) [7] [%]	relative % inhibition of NLluc/JR-FL entry into U87MG-CD4 cells by 2 µg/ml chemokine (wild-type = 100) [8] [%]
B1	100	33	121	-16	85	51	107	7
B2	100	36	112	2	97	75	97	41

Reference: patent US20040086528A1 (PROGENICS PHARMACEUTICALS, published 2004)
